Source: publication PMC4219626 (Nature structural & molecular biology, 2014)

B1: Rrn7 (recombinant, His6-tagged) (natural protein, S. cerevisiae, UniProt P40992 1-514, looked up)
chain: MSTFIRGPICGTDNCPSRLWRIIDGRRTCQYGHVMEGDVEFNDDEDDLNGLGAGVITRRLNLTTNATGSFQSSQLTNSQLLQQQQRQSHKKFKKLIGHEAKLLFLKSFQFILKRQIRWLITEMRFPKEFEHVAKIIWLKILKTINDQPQEELKLQLHMTSTISILYLASTHLSLPVYTCDYIKWICTAKMPYFQASEILPKSWRIQLPNYYVSILEGSISPFNGQLYNKIALTCGMIHFKEFFNSEISCQGLLLKLVMQCALPPEFYFYTKQVIEFEETDIRNLTLWERTDERHTGRVSNHAELRVLSYFMLTINWMLSFDRDRQYPLKWILSLTESLTQRTTTSESIGRNIVKVVYPDKPTSSDYFQWSEEETLEFLKWMEKQFLPTQTKSLHNENGSMEMTIDQKIARRKLYKIFPLDREANHDGEFNDSTHQLTFIEDLQERYAKQTPFFESNKIRDSLNYQEANPPARKEAIGRLLTHIASQLLVDFAISKEQLKDCISRIKNACLHRMN
B2: Rrn6 (recombinant, His6-tagged) (natural protein, S. cerevisiae, UniProt P32786 1-894, looked up)
chain: MSEGQIPSSDVLGSQLGVGVQGASLYCPQENYTTKKQEKPQWLRPVDDTLAEDALDLHIVVKSLLCDTAIRYISDDKVLQESDADDDLITSDIDEDTDNQGDTSIVVNPVIPVVPKDVHFFKKVDVGNDSMFGVNCDTPVSFQDYIPSDLLRNLDDTLQESTNSSRPMQDAFFWDPTVANRLDSQYIQTASDLRNYRDGTEIIAYASGKTGSVLNIAVLTRQNTLHLNRHNNVTSIELHSPIKSIKIPGASESIGRRSNLVGIITENSFQIFRIESVHSRSCDVMVSSSEPLYFVEIDDLQVVDFAFNPWDLQQFAIIDIKGNWSIGRIPKNFNNNNKRKLQLIDNLHGTIFDPEELSSWKRIEWFSHFQKILVFDRSKMIEIDFMNNWQTEVVQAKAWSNIRDYKRIDDKNGILLTSREIIIVGASESNDPVRRISWKHDLDPDDTTLRITVQKVKKPDHILLVAFVYSMRHKRIYMHVFSHRKANLFQSLGCSTVLEIPGGTPTGIETILTLDHIDDESRREEDADENFELVVDFLVKLRNSSEVYYYALSNTQNSEPNKQETPIIVDHPEWASLFNNADEREKESIGALVSQIKLKERERISRVQNLIEHENSHDEDKYLQDLGYRLSIATNELLESWQKTKDESILSGSLSHSKLKNLLENSDSFASIPEFSSLLDQFFQYYQDQDVTFIGFEKLLHLFLHEDVPGLDIFYNKLLQCWVLVSPQAELLTKEIVKDIIWSLARLEKPSLFEPIQNEISRSLSGPYQDIISSWDMDDINEEDESNEFNFDSQFSAPFNGRPPFNLNSQSQIPTIKSSQSSGLARRKRILKTQSQKATPLSQSTQNLSVLPDSMTPAFTLMQPPSSQISFVNDSQPRNSQKAKKKKKRIRGFG
B3: Rrn11 (recombinant) (natural protein, S. cerevisiae, UniProt Q04712 1-507, looked up)
chain: MFEVPITLTNRKFAQRRKLKYQYINYISRRFDRISKKSTTTDSLPTPENSAAENNDEEEGQNSEAGTYRRSVLQQKKRRRERHWRSVVGEIYSTTESETDSQEEETEEGGEHDTGIDKEDSDEERKFWKKYEKPEKSFEIWRTVSSQNKQPINKQKMTYHNFKKIEKIPLRKMEIPLLHCTKENKLYFQSISRGLEPLKTSTSEVRNYRTRHIVTLTDLLHLNVSRHNWSLAYKIFATLIRIPGVQIKSLWGIGVEILDNLSNSSSGLDFLQWMCQIYSSKSRFVQNINYRSIVPPFQTGSRTHTAKFAITYLWSSLINCQKSMEPSSNIIDKPFDTENDLLQELIDKISEWVLTPPFMEDAEVWFIYASCHLLKADTLSRQFVNDNKNNDLIGLDRDIKINQVIKHIHYVRTFLKICLDKGGFAVPSRLIENQLKSFESRLYGEAQDIQERDVANVYDSIDNSSVENSFGDVYETNAEFLDTQLMDLSPEDNGLDEMHYSDEDSSE
B4: TATA binding protein (TBP) (natural protein, S. cerevisiae, UniProt P13393 1-240, looked up)
chain: MADEERLKEFKEANKIVFDPNTRQVWENQNRDGTKPATTFQSEEDIKRAAPESEKDTSATSGIVPTLQNIVATVTLGCRLDLKTVALHARNAEYNPKRFAAVIMRIREPKTTALIFASGKMVVTGAKSEDDSKLASRKYARIIQKIGFAAKFTDFKIQNIVGSCDVKFPIRLEGLAFSHGTFSSYEPELFPGLIYRMVKPKIVLLIFVSGKIVLTGAKQREEIYQAFEAIYPVLSEFRKM

Tests used:
[1] = target: B2; assay: co-purification
[2] = target: B1; assay: cross-linking
[3] = target: B2; assay: cross-linking
[4] = target: B1; assay: cross-linking; remark: listed apart in the source
[5] = target: B2; assay: cross-linking; remark: listed apart in the source
Rrn11 (recombinant) = target: B3; assay: cross-linking

Binder: B1
- binding result [1]: binds

Binder: B2
- stoichiometry N [2]: 1

Binder: B3
- stoichiometry N [2]: 1
- stoichiometry N [3]: 1

Binder: B4
- binding result [4]: binds
- binding result [5]: binds
- binding result (Rrn11 (recombinant)): binds
